Experimental data as given in article PMC3985756 (Biochemistry, 2014).

Target: the molecule itself
Assay: crystal structure

B1: N-terminal six-His-tagged FosB from Staphylococcus aureus with a bacillithiol-Cys9 disulfide bond (enzyme)
chain: not shown
modifications: Cys9 in a disulfide bond with bacillithiol (BS-Cys9)
Which “stoichiometry N” value does the source give for B1 here?
Its value is 2.
